Legend:
[1] = molecular target: human polyclonal IgG (Gammanorm) (human); assay: SPR, ligand on chip; signal left after 96-100 CIP cycles 0.5 M NaOH
[2] = molecular target: human polyclonal IgG (Gammanorm) (human); assay: SPR; ratio of remaining capacity to reference Zvar1
[3] = molecular target: human polyclonal IgG (Gammanorm) (human); assay: SPR, ligand on chip; CIP cycles 0.5 M NaOH
[4] = molecular target: human polyclonal IgG (Gammanorm) (human); assay: SPR; ratio to reference Zvar4
[5] = molecular target: human polyclonal IgG (Gammanorm) (human); assay: SPR; ratio to reference Zvar2

Substance	Capacity after 96-100 cycles [1] [%]	Capacity relative to reference [2]	also measured
Zvar(N11K,H18K,D37E,A42R,N43A,L44I)1 (designed binder)	59	1.31	
Zvar(N11K,H18K,S33K,D37E,A42R,N43A,L44I,K50R,L51Y)1 (designed binder)	67	1.46	
Zvar(Q9A,N11E,A29E,Q40V,A42K,N43A,L44I)1 (designed binder)	57	1.21	
Zvar(Q9A,N11E,A29K,Q40V,A42K,N43A,L44I)1 (designed binder)	59	1.28	
Zvar(Q9A,N11E,A29L,Q40V,A42K,N43A,L44I)1 (designed binder)	61	1.33	
Zvar(Q9A,N11E,A29N,Q40V,A42K,N43A,L44I)1 (designed binder)	61	1.3	
Zvar(Q9A,N11E,A29V,Q40V,A42K,N43A,L44I)1 (designed binder)	62	1.32	
Zvar(Q9A,N11E,A29W,Q40V,A42K,N43A,L44I)1 (designed binder)	60	1.3	
Zvar(Q9A,N11E,D37E,Q40V,A42K,N43A,L44I)4 (designed binder)			Remaining capacity 100 cycles (%) [3]: 81%; Capacity relative to ref. 100 cycles [4]: 1.13
Zvar(Q9A,N11E,D37E,Q40V,A42R,N43A,L44I)4 (designed binder)			Remaining capacity 100 cycles (%) [3]: 84%; Capacity relative to ref. 100 cycles [4]: 1.17
Zvar(Q9A,N11E,N28A,Q40V,A42K,N43A,L44I)1 (designed binder)	65	1.35	
Zvar(Q9A,N11E,N28A,Q40V,A42K,N43A,L44I)4 (designed binder)			Remaining capacity 100 cycles (%) [3]: 84%; Capacity relative to ref. 100 cycles [4]: 1.24
Zvar(Q9A,N11E,N43A)4 (designed binder)			Remaining capacity 100 cycles (%) [3]: 81%; Remaining capacity 200 cycles (%) [3]: 62%; Remaining capacity 300 cycles (%) [3]: 41%; Capacity relative to ref. 100 cycles [4]: 1.21; Capacity relative to ref. 200 cycles [4]: 1.72; Capacity relative to ref. 300 cycles [4]: 2.56
Zvar(Q9A,N11E,Q40V,A42K,N43A,L44I)2 with A56, P57 and K58 in linker deleted (designed binder)			Capacity relative to ref. 100 cycles [5]: 1.26; Remaining capacity 100 cycles (%) [3]: 68%
Zvar(Q9A,N11E,Q40V,A42K,N43A,L44I)2 with D2, A3 and K4 in linker deleted (designed binder)			Capacity relative to ref. 100 cycles [5]: 1.27; Remaining capacity 100 cycles (%) [3]: 70%
Zvar(Q9A,N11E,Q40V,A42K,N43A,L44I)2 with K4, F5, D6, K7 and E8 in linker deleted (designed binder)			Capacity relative to ref. 100 cycles [5]: 1.3; Remaining capacity 100 cycles (%) [3]: 70%
Zvar(Q9A,N11E,Q40V,A42K,N43A,L44I)2 with K58, V1 and D2 in linker deleted (designed binder)			Capacity relative to ref. 100 cycles [5]: 1.38; Remaining capacity 100 cycles (%) [3]: 76%
Zvar(Q9A,N11E,Q40V,A42K,N43A,L44I)2 with P57, K58, V1, D2 and A3 in linker deleted (designed binder)			Capacity relative to ref. 100 cycles [5]: 1.35; Remaining capacity 100 cycles (%) [3]: 74%
Zvar(Q9A,N11E,Q40V,A42K,N43A,L44I)2 with V1, D2 and A3 in linker deleted (designed binder)			Capacity relative to ref. 100 cycles [5]: 1.39; Remaining capacity 100 cycles (%) [3]: 75%
Zvar(Q9A,N11E,Q40V,A42K,N43A,L44I)2 with V1, D2, A3, K4, F5, D6, K7 and E8 in linker deleted (designed binder)			Capacity relative to ref. 100 cycles [5]: 1.13; Remaining capacity 100 cycles (%) [3]: 62%
Zvar(Q9A,N11E,Q40V,A42K,N43A,L44I,D53K)1 (designed binder)	65	1.41	
Zvar(Q9A,N11E,Q40V,A42K,N43A,L44I,D53R)1 (designed binder)	60	1.3	
Zvar(Q9A,N11E,Q40V,A42K,N43A,L44I,D53W)1 (designed binder)	62	1.35	
Zvar(Q9A,N11E,Q40V,A42del,N43A,L44I)1 (designed binder)	57	1.24	
Zvar(Q9A,N11K,H18K,D37E,A42R,N43A,L44I)1 (designed binder)	63	1.4	
Zvar(Q9del,N11E,Q40V,A42K,N43A,L44I)1 (designed binder)	60	1.3	

Continued, in another order:

Capacity after 96-100 cycles [1] [%]	Capacity relative to reference [2]	Substance	also measured
53	1.04	Zvar(N11E,Q32E,K50R)1 (designed binder)	
56	1.19	Zvar(Q9A,N11E,A29D,Q40V,A42K,N43A,L44I)1 (designed binder)	
62	1.35	Zvar(Q9A,N11E,A29F,Q40V,A42K,N43A,L44I)1 (designed binder)	
57	1.21	Zvar(Q9A,N11E,A29H,Q40V,A42K,N43A,L44I)1 (designed binder)	
58	1.23	Zvar(Q9A,N11E,A29I,Q40V,A42K,N43A,L44I)1 (designed binder)	
62	1.32	Zvar(Q9A,N11E,A29M,Q40V,A42K,N43A,L44I)1 (designed binder)	
60	1.28	Zvar(Q9A,N11E,A29Q,Q40V,A42K,N43A,L44I)1 (designed binder)	
58	1.26	Zvar(Q9A,N11E,A29R,Q40V,A42K,N43A,L44I)1 (designed binder)	
66	1.38	Zvar(Q9A,N11E,A29S,Q40V,A42K,N43A,L44I)1 (designed binder)	
60	1.28	Zvar(Q9A,N11E,A29T,Q40V,A42K,N43A,L44I)1 (designed binder)	
61	1.27	Zvar(Q9A,N11E,A29Y,Q40V,A42K,N43A,L44I)1 (designed binder)	
58	1.26	Zvar(Q9A,N11E,Q40V,A42K,N43A,L44I,D53F)1 (designed binder)	
59	1.28	Zvar(Q9A,N11E,Q40V,A42K,N43A,L44I,D53Y)1 (designed binder)	
55	1.2	Zvar(Q9A,N11E,Q40V,A42K,N43del,L44I)1 (designed binder)	
59	1.28	Zvar(Q9A,N11E,Q40del,A42K,N43A,L44I)1 (designed binder)	
67	1.49	Zvar(Q9A,N11K,H18K,D37E,A42R,N43A,L44I,K50R)1 (designed binder)	
59	1.28	Zvar(Q9A,N11K,H18K,S33K,D37E,A42R,N43A,L44I,K50R,L51Y)1 (designed binder)	
